Columns and labels:
[1] = target: VL9 peptide HLA-E single chain trimer (soluble) (human); assay: SPR
[2] = target: WN peptide HLA-E single chain trimer (soluble) (human); assay: SPR

Substance | Kd [1] | Kd [2]
CD94/NKG2A single-chain fusion protein (NKG2A ectodomain-GGSGGS-CD94 ectodomain), soluble, for SPR (from UniProt P26715 94-233; Q13241 32-179) (receptor) | 8.2 µM | 41.5 µM
CD94/NKG2C single-chain fusion protein (NKG2C ectodomain-GGSGGS-CD94 ectodomain), soluble, for SPR (from UniProt P26717 94-231; Q13241 32-179) (receptor) | 21.4 µM | 17.4 µM

Reference: publication doi:10.1101/2022.08.03.502719
